From PMC7693240

Columns and labels:
[1] = biological target: H6-Smt3-Int^C(N125A)-CysTag(Alexa647)-Trx-H6; assay: MST

MBP-Int^N(C1A)-H6 (domain or fragment)
Kd [1]: 22.4 nM

SBP-Int^C(N125A)-eGFP (domain or fragment)
Kd (H6-Int^N(C1A)-mCherry): 9.2 nM | koff (H6-Int^N(C1A)-mCherry): 0.00082 s⁻¹ | kon (H6-Int^N(C1A)-mCherry): 85000 M⁻¹ s⁻¹
